This passage reports Kd results from paper PMC13376213, “Systematic discovery of motif-based interactions of the auxiliary domains of USP family deubiquitinases” (Nature Communications, 2026).

The target of assay [1] is USP20 zf-UBP domain, tag cleaved (for FP) (human). Nature of the assay: fluorescence polarisation; displacement: unlabeled peptide titrated into the domain (at two-fold the KD of the FITC-labeled peptide) with 10 nM FITC-labeled peptide; 50 mM phosphate buffer pH 7.4, DTT, room temperature; estimated KD.
Chain of USP20 zf-UBP domain, tag cleaved (for FP) (human) (Q9Y2K6 whole entry, the tested form may be a part): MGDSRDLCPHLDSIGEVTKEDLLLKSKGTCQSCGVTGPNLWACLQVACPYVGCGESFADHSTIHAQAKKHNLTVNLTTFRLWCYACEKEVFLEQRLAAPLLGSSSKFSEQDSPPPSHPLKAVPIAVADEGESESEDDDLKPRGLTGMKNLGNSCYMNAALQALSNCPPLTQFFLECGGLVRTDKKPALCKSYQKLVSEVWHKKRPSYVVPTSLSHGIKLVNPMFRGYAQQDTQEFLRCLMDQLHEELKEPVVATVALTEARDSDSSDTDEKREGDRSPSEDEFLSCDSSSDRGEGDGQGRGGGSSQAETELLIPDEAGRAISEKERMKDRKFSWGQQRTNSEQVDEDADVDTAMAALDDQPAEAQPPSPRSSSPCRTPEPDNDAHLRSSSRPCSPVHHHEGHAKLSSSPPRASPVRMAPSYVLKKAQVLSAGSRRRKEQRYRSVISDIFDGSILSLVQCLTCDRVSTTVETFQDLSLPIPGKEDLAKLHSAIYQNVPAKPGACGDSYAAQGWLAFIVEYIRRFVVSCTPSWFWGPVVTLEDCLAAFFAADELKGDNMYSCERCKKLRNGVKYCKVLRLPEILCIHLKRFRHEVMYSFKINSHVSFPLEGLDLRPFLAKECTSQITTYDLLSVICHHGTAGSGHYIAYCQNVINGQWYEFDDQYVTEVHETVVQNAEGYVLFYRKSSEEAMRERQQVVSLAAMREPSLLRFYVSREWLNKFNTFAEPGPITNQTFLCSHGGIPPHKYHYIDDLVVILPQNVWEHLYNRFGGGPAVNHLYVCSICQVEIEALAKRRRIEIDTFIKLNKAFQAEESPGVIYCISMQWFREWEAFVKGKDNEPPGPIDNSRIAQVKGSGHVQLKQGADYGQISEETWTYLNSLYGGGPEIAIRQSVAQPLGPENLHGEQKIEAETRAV
For assay [2], the target named is USP33 zf-UBP domain, tag cleaved (for FP) (human) (UniProt Q8TEY7). The assay is described as above.
Chain of USP33 zf-UBP domain, tag cleaved (for FP) (human) (Q8TEY7 whole entry, the tested form may be a part): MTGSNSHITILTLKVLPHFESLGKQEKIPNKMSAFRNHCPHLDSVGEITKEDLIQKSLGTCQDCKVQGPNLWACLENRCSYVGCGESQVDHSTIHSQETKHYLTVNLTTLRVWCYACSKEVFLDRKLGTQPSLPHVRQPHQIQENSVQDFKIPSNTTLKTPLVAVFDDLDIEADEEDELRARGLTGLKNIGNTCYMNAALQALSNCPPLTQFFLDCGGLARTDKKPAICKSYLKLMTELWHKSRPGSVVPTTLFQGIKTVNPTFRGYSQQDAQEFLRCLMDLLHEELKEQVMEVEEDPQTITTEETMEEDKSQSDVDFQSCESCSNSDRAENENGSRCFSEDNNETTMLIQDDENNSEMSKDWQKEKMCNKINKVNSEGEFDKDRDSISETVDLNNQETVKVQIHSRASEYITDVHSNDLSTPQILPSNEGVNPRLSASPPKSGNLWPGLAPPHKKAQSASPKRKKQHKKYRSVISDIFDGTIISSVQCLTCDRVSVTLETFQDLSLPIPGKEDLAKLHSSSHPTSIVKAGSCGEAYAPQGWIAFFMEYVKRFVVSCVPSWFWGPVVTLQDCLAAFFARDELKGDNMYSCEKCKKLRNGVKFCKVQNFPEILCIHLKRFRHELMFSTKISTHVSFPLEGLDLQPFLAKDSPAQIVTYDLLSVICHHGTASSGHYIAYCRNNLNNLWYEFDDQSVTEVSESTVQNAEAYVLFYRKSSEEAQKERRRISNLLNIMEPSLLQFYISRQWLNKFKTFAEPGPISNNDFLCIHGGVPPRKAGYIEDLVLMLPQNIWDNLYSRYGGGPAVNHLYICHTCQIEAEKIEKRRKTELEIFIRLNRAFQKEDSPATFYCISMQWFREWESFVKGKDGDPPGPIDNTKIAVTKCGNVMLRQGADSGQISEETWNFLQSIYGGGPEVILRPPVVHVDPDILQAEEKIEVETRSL
The target in assay [3] is USP11 DUSP-UBL tandem domain (human) (UniProt P51784). Nature of the assay: fluorescence polarisation; displacement: serial dilution of the unlabelled peptide against the domain (at two-fold the KD of the FITC-labelled peptide) in complex with 10 nM FITC-labelled peptide; 50 mM phosphate buffer pH 7.4; room temperature; three technical replicates; sigmoidal dose-response fit. Background: Polarisation of emitted light reports the rotation of a fluorescent probe.
Chain of USP11 DUSP-UBL tandem domain (human) (P51784 whole entry, the tested form may be a part): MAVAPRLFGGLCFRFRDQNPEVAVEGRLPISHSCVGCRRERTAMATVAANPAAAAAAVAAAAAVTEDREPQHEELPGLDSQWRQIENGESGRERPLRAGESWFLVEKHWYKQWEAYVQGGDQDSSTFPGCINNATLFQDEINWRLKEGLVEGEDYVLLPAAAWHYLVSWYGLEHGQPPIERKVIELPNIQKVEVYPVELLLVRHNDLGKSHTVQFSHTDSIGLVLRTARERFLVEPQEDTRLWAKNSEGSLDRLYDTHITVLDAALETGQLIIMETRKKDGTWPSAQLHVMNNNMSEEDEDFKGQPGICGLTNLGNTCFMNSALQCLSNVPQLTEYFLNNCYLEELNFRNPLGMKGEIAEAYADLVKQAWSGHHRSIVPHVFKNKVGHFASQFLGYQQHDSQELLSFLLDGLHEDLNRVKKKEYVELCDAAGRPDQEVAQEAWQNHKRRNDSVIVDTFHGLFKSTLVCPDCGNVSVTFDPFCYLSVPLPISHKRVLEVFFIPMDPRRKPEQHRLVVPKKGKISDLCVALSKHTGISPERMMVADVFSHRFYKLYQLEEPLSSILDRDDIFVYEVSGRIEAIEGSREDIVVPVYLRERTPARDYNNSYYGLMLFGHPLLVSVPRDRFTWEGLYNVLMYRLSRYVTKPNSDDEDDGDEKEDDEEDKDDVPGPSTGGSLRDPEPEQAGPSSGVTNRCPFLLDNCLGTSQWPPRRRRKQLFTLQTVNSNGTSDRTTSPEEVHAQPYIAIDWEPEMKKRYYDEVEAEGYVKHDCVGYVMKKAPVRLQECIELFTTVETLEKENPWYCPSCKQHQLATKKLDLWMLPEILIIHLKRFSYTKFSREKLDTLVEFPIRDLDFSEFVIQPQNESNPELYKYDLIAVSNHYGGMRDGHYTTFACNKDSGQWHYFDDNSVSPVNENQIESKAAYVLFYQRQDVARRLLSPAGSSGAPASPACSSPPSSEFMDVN

Assay [4] addresses USP33 zf-UBP domain (human) (UniProt Q8TEY7). The assay is described as above.
Assay [5] deals with USP20 zf-UBP domain (human) (UniProt Q9Y2K6). The assay is described as above.
Chain of USP20 zf-UBP domain (human) (Q9Y2K6 whole entry, the tested form may be a part): as the sequence (Q9Y2K6 whole entry, the tested form may be a part) above

As usually defined, the Kd is a measure of binding affinity in units of concentration.

Chain of USP33 zf-UBP domain (human) (Q8TEY7 whole entry, the tested form may be a part): as the sequence (Q8TEY7 whole entry, the tested form may be a part) above

B1: ROBO1_(1495-1506) peptide (peptide)
peptide: Ac-AQSKTQLEVRPV-NH2
As for B1, the Kd was 82 µM in assay [1] and 14 µM in assay [2].

B2: ORAI1 48-63 peptide, unlabelled (peptide)
peptide: Ac-SAVTYPDWIGQSYSEV-NH2
B2 showed a Kd in assay [3] of 207 µM.

B3: CEP192 2073-2087 peptide (peptide)
peptide: Ac-YLQPSSKASLESTSDL-NH2
In the case of B3, the Kd in assay [4] was determined as 14.1 µM; in assay [5] it was 37.1 µM.
